Experimental data taken from publication PMC7082302.
Several values for one entry are separate records, joined by “and”; a condition that tells them apart may be missing. Equal values may be shown once. Each block holds one substance with its values, some of them ahead of it.

Assays:
Test in all cases: SEC; analytical SEC, Superdex 200 Increase 10/300 GL, buffer W (100 mM Tris-HCl pH 8.0, 150 mM NaCl, 2.5 mM EDTA); protein solutions from the two AEC elution peaks; oligomeric state from the elution volume by the column's calibration
[1] = target: Chlamydomonas reinhardtii truncated hemoglobin THB11, full length (Chlamydomonas reinhardtii)
[2] = target: THB11-C (THB11 lacking the C-terminal 225 residues) (Chlamydomonas reinhardtii)
[3] = target: THB11-N (THB11 lacking the N-terminal 41 amino acids) (Chlamydomonas reinhardtii)

stoichiometry N [1]: 3 and 7
Substance: Chlamydomonas reinhardtii truncated hemoglobin THB11, full length (natural protein)

stoichiometry N [2]: 3
Substance: THB11-C (THB11 lacking the C-terminal 225 residues) (domain or fragment)

stoichiometry N [3]: 3 and 7
Substance: THB11-N (THB11 lacking the N-terminal 41 amino acids) (domain or fragment)
